Reference: the nanobody polyreactivity screen of Harvey et al. (2022)

assay: yeast display, Sf9 membrane polyspecificity reagent, FACS + sequencing; frameworks hold sequencing errors
Procedure, shortened: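 Synthetic nanobody libraries on Saccharomyces cerevisiae BJ5465 were galactose-induced for 36–48 hours, stained 1 hour at 4 °C with 10% biotinylated, detergent-solubilized Sf9 membrane reagent and enriched on streptavidin microbeads. FACS then separated cells into low and high (top ~1%) gates by anti-HA (expression) and streptavidin (reagent binding) fluorescence. Genes were colony-PCR amplified, MiSeq 2 × 250 sequenced and CDR-length filtered. A clone's polyreactivity label is that of its gate of origin.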

Row | Sequence | polyreactivity (PSR sort gate)
1 | QVQLVESGGGLVQAGGSLRLSCAASGRIFKTYAMGWYRQAPGKERELVAAISIRGGSTYYAESVKGRFTISRDNAKNTVYLQMNSLKPEDTAVYYCNALYGRQIVDYDYWGQGTQVTVSS | low polyreactivity
2 | QVQLVESGGGLVQAGGRLRLSCAASGRIFSINAMGWYRQAPGKERELVAAISNRGGSTYYADSVKGRFTISRDNAKNTVYLQLNSLKPEDTAVYYCAARVATSGNYAPYYYWGQGTQVTVSS | high polyreactivity
3 | QVQLVESGGGLVQAGGSLRLSCAASGFISVRNAMGWYRQAPGKERELVAAISSGDTTDYADSVKGRFTISRDNAKNTVYLQMISLKPEDTAVYYCAAVYYGRYYYWGQGTQVTVSS | low polyreactivity
4 | QVQLVESGGGLVQAGGSLRLSCAASGIIFQFYAMGWYRPAPGKERELVAAISRSGGITHYADSVKGRFTISRDNAKNTVYLQMNSLKPEDTAVYYCNAVQPARFVGGFGTGVDYWGQGTQVTVSS | high polyreactivity
5 | QVQLVESGGGLVQAGGSLRLSCAASGITFSLYVMGWYRQAPGKERELVAAISTSGGSTYYADSVKGRFTISRDNAKNTVYLQMTSLKPEDTAVYYCAAVYVLSWYVQTYDYWGQGTQVTVSS | low polyreactivity
6 | QVQLVESGGGLVQAGGSLRLSWAASGSILLGYAMGWYRQAPGKERELVAAISRNGGSTYYADSVKGRFTISRDNAKNTVYLQMNSLKPEDTAVYYCNKYSGYKGTDGGDYWGQGTQVTVSS | low polyreactivity
7 | QVQLVESGGGLVQAGGSHRLSSAASGLTFGGNAMGWYRQAPGKERELVAGISSSGNTNYADSVKGRFTISRDNAKNTVYLQMNSLKPEDTAVYYCAADENITYPVYDMYDWGQGTQVTVSS | low polyreactivity
8 | QVQLVESGGGLVQAGGSLRLSCAASGSTFDANDMGWYRQAPGKERELVAAITIGGGSTYYADSVKGRFTISRDNAKNTVYLQMNSLKPEDTAVYYCAKDDHTGVHTYPVDYWGQGTQVTVSS | low polyreactivity
9 | QVQLVESGGGLVQAGGSLRLSCAASGSIRSYAMGWYRQAPGKERELVAAITRSGGSTYYADSVKGRFTISRDNAKITVYLQMNSLKPEDTAFYYCAARYTYSYPLFGSWGQGTQVTVSS | high polyreactivity
10 | QVQLVESGGGLVQAGGSLRLSCAASGRIFVRNAMGWYRQAPGKERELVAAISWSSGGTYYADSVKGRFTISRDNAKNTVYLQMNSLKPEDTAVYYCNADPSRAGDYWGQGTQVTVSS | low polyreactivity
11 | QVQLVESGGGLVQAGGSLRLSCAASGRIFSRYAMGWYRQAPVKERELVADITYNGGSTYYADSVKGRFTISRDNAKHTVYLQMNSLQPDDTAVYYCNAVEVLDEGWGFWYYYWGQATQVTVSS | high polyreactivity
12 | QVQLVESGGGLVQAGGSLRLSCAASGRTFQYYAVGWYRQAPGKERELVAAITSGGSTYYADSVKGRFTISRDNAKNTVYLQMNSLKPEDTAVYYCAAKRNVQLGYTVQSLYDYWGLGTQVTVSS | low polyreactivity
13 | QVQLVESGGGLVQAGASLRLSCADSGRISESNDMGWNRQAPGKQRELVAAISSSGGSTYYADSVMGRFPISRDNAKNTVYLQMNSLKPEDTALYYCNAVYYRTVLKIGVYEYDYWGQGTQVTVSS | low polyreactivity
14 | QVQLVESGGGLVQAGSSLRLSCAASGGTFYINTKGWYRKAPGKERELVATITIVVSTKYADSVKGRFTISRDNAKNTVYLQMNSLKPEDTAVYYCAKDDVYRDSYLVFDGEMDYWGQGTQVTVSS | low polyreactivity
15 | QVQLVESGGGLVQAGGSLRLSCAASGSIFYWYAMGWYRQEPGKERELVAAIDISDDTYYADSVKGRYTISRDNAKNTVYLLMNRLKPEDTAVYYCATDEWYLFEYPFYYWGQGSQVTVSS | high polyreactivity
16 | QVQLVESGGGLVQAGGSLRLSCAASGSTFSRYAMGWYRQAPGKEREFGAAISRRAGGTYYADSVKGRFTISRDNAKNTVYLQMNSLKPEDTAVYYCAKVLPRDYIGRATYDYWGQGTQVTVSS | high polyreactivity
17 | QVQLVESGGGLVQAGGSLRLSCAASGRIFGYYAMCWYRQAPGKERELVARITWYGGDTYYADSVKGRFTISRDNAKNTVYLQMNSLKPEHTAVYYCGADFVFYRQPDTYFYPHDYWGQGTQVTVTS | low polyreactivity
18 | QVQLVESGGGLVQAGGSLRLSCAASGSIFERNAMGWYRQAPGKERELVAGISSSGRTNYADSVKGRFTISRDNAKNTVYLQMNSLKPEDTAVYYCSADTYLYWEYDYWGQGTQVTVSS | low polyreactivity
19 | QVQIVESGGGLVQAGGSLRVSCAPSGRTFLPYGMGWYRQAPGKEWELVASITSGGSTNYADSVKGRFTISRDNAQNTVYLQMNSLKPEDTAVYYCNKQTIPEWPWVKYSNGYDHWGHGTQVTVSS | low polyreactivity
20 | QVQLVESGGGLVQAGGSLRLSCASSGTIFKYSAMGWYIQAPGKEREFVAGISWSGGRTYYADSVKGRFTISRDNAKITVYLHMNSLKPEDTAVYYCARVRLTSYGYYSWGQGTQVTVSS | high polyreactivity
21 | QVQLVESGGGLVQAGGSLSLSCAASGFIFGGNAMGWYRQAPGKERELVAAISSGGRTYYADSVKGRFTISRDNAKNTVYLQMNSLKPEDTAVYYLNDYSYHRGRDYWGQGTQVTVSS | low polyreactivity
22 | QVQLVESGGGLVQAGCSLRLICAASRSTFTDNAMGWYRQAPGKESELVAAISTGTSTYADSVKGRFTISRDNATNTVYLQMNRLKPEDTAGYYCAADVGIRPLNYHPYNYWGQGTQVTVSS | low polyreactivity

Row | Sequence | polyreactivity (PSR sort gate)
23 | QVKLVESGGGLVQAGGSLRLSCSASGLTLSGNAMGWYRQAPGKERELVAAITGRGGSTTYADSVKGRFTISRDNAKNTVYLQMNSLKPEDTAVYYCPATRYSWHNRGSRRHRYDYWGQGTQVTVSS | low polyreactivity
24 | QVQLVESGGGLVQAGGSLRLSCAASGRTFDYYAMGWYRQAPGKERELVAAITSGGSTYYADSVKGRFTISRDNAKNTDYLQMNSLKPEDTAVYYCAKSWALTRGYGSRYYVYRYDYWGQGTQVTVSS | low polyreactivity
25 | QFQLVESGGGLVQAGGSLRLSCAASGSIFLAYDMGWYRQAPGKERELVAGITSGGTTYYADSVKGRFTISRDNAKNTVYLQMNSLKPADTAVYYCAALLYTPYYYWGQGTQVTVSS | low polyreactivity
26 | QVQLVESGGGLVQAGGSLRLSCAASGRTFAYYVMGWYRPAPGKERQLVAAINRSDGSTSYADSVKGRFTISRDNAKNTVYLQMNSLKPEDTAVYYCAKSKPVGPYYYWGQGTQVTVSS | high polyreactivity
27 | QVQLQESGGGLVQAGGSLRLSCAASGYIFPRIDMGWYRQAPGKEREFDAGISYDAITNYADSVKGRFTISLDNAKNTVYLQMNSLKPEDTAVYYCAVSYYGTPLFTYWGQGTQVTVSS | high polyreactivity
28 | QVQLVESGGGLVQAGGSLRLSCAASGRILPGNAMGWYRQAPGKERELVATITNGGRTYYADSVKGRFAISRDNAKNTVYLQMNSLKPVDTAVYYCAAVVVRFIYVYFEFEWGQGTQVTVSS | low polyreactivity
29 | QVQLVESGGGLVQAGGSLRLSCAASGRIFYTYAMGWYRQAPGKERELVAAINYSSASTYYADSVKGRFTISRDNAKNTVYLQMNSLKPEDTAVYYCNVAYVYGSFRRRPMGYWGQGTQVTVSS | high polyreactivity
30 | QVQLVESGGGLVQAGGSLRLICAASGSIFYRNAMGWYRQAPGKERELVAAISSDGSTNYADSVKGRFTISRDNAKNTVYLQMNSLKPEDTAVYYCAAPWTQILDYWGQGTQVTVSS | low polyreactivity
31 | QVHLVESGGGLVQAGGSLSFSCAASGSNFTFNTMVWYRQAPGKEREKVATISSGGRTYYADSVKGRFTISRDNAKNTVYLQMNSLKPEDTPVFYCNKGYYGYTYVEYNYWGQGTPVTVSS | low polyreactivity
32 | QVQLVESGGGLVQAGCSLRLSCAACGFTFIPNAMGWYRQAPAKERELVAAISFGGGSTYYADSVKGRFTISRDNAKNTVYLQMNSMKPEETAVYYCAAEAFVSYEPYWYVRYYSSYNYWGQGTQVTVSS | high polyreactivity
33 | QVQLVESGGVLVQAGGSLRLSCAASGSIFKRNVMGWYRQAPGKERELVAAITWSGASTYYADSVKGRFTISRDNAKNTVYLQMNSLKPEDTAVYYCAARGPSRRRDGSDYWGQGTQVTVSS | high polyreactivity
34 | QVQLVESGGGLVQAGGSLRLSCAASGFTFGRYAMGWYRQAPGKERELVAAITSRGGSTYYADSVKGRFTISRDNAKNTVYLQMNSLKPEDTAVYYCNRDLVDSYGYWGQGTQVTVSS | high polyreactivity
35 | QVQLVESGGGLVHAGGSLRLSCAASGRIFIANAMGWYRQAPGNERELVAGIRGSGGRTYYADSVKGRFTISRDNAKNTVYLQMNSLKPEDTAVYDCNARTPGRLGRFDYWGQGTQVTVSS | low polyreactivity
36 | QVQLVESGGGLVQAGGSLRLSCAASGSIFRTYVMGWYRQAPGKERELVAAISSSGGRTYYADSVKGRFTISRDNAKNTVYLLMNSLKPEDTAVYYCAAPRTSTRYRLTLQGVNQYDYWGQGTQVTVSS | high polyreactivity
37 | QVQLVESGGRLVQAGGSLRLSCAPSGRTFGVYAMGWYRQAPGKERELVAVISSSSGSTYYADSVKGRFTISRDNAKNTVYLQMNSLKPEDTAVYYCAADFFYESFRDDYWGQGTQVTVSS | low polyreactivity
38 | QVQLVESWGGLVQAGGSLRLSCAASGSIFDYNAMGWYRQAPGKERELVAAISSGGSTNYADSVKGRFTISRDNAKNTVYLQMNSLKPEDTAVYYCNTGLYWLGYWPDDYWGQGTQVTVSS | low polyreactivity
39 | QVQLVESGGGLGQAGGSLRLSCAASGVSNAMGWYRQAPGKERELVAAISRSGGSTYYADSVKGRFTISRDNAKNTVYLQMNRLKPEDTAVYYCNARPYWIDGSGLFPYDYWGQGSQVTVSS | high polyreactivity
40 | QVQLVESGGGLVQAGGILRLSCAASGSTFVRYVMVWYRQAPGKERELVAAISRRGGSTYYADSVKGRFTISRDNAKNTVYLQMNSLKPEDTAVNYCARTVGYRTLLESDSWGQGTQVTVSS | high polyreactivity
41 | QVQLVESGGGLVQAGGSLRLSCAASGSTFWSYAMGWYRQAPGKERELVAVITGSDGRTFYADSVKGRFTISRDNAKNTVYFQINSLKPEDTAVYYCAADAVFRATRDDRSTSEDDYWGQGTQVTVSS | low polyreactivity
42 | QVQLVESGGGLVHAGGSLRLSCDASGFTFAGYSMGWYRQAPGKERELVAGIRSSGARTYYADSVKGRFTISRDNAKTTVYLQKNILKPEHTAVYYCAKTDGFYSGYGYWGQGTQVTVSS | low polyreactivity
43 | QVQLVESGGGLVQAGGSLRLSCAASGRTFFGYAMGWYRQAPGKERELVAAINWGGASTYYADSVKGRFTISRDNAKNTVYLQMNSLKPEDTAVYYCAADSVPSRPTYGRYDYWGQGTQVTVSS | low polyreactivity
